Results published in the supplement of paper PMC10065799, “High-throughput profiling of sequence recognition by tyrosine kinases and SH2 domains using bacterial peptide display” (eLife, 2023).

Tests used:
Fes = Fes (UniProt P07332); assay: phosphorylation enrichment, bacterial display (enrichment ratio); higher = better substrate or ligand; peptides without Tyr show the background
EPHB2 = EPHB2 (UniProt P29323); assay: as above
c-Src = assay: as above
Hck = Hck (UniProt P08631); assay: as above
AncSZ = assay: as above
FGFR1 = FGFR1 (UniProt P11362); assay: as above
EPHB1 = EPHB1 (UniProt P54762); assay: as above
MERTK = MERTK (UniProt Q12866); assay: as above
Jak2 = Jak2 (UniProt O60674); assay: as above
FGFR3 = FGFR3 (UniProt P22607); assay: as above
Fyn = Fyn (UniProt P06241); assay: as above
c-Abl (mouse) = assay: as above
Fer (mouse) = assay: as above
c-Src SH2 = assay: SH2 binding enrichment of the phosphorylated peptide, bacterial display (enrichment ratio); higher = better substrate or ligand; peptides without Tyr show the background
Grb2 SH2 = Grb2 SH2 (UniProt P62993); assay: as above
SHP2-C SH2 = assay: as above
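Wherever SH2 binding enrichment of the phosphorylated peptide, bacterial display is given: peptide library displayed on the E. coli surface as eCPX fusions, selected cells deep-sequenced, score is each peptide's frequency after selection divided by its frequency in the input.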
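Wherever phosphorylation enrichment, bacterial display is given: 11-residue human phosphosite peptides and single-mutation variants displayed on the E. coli surface, counted by deep sequencing, each peptide's frequency after selection divided by its frequency in the unselected input library; frequency after pTyr selection over input frequency; kinase dosed for 20-30% of maximal phosphorylation in three min.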

Sequence of Fyn (P06241 whole entry, looked up): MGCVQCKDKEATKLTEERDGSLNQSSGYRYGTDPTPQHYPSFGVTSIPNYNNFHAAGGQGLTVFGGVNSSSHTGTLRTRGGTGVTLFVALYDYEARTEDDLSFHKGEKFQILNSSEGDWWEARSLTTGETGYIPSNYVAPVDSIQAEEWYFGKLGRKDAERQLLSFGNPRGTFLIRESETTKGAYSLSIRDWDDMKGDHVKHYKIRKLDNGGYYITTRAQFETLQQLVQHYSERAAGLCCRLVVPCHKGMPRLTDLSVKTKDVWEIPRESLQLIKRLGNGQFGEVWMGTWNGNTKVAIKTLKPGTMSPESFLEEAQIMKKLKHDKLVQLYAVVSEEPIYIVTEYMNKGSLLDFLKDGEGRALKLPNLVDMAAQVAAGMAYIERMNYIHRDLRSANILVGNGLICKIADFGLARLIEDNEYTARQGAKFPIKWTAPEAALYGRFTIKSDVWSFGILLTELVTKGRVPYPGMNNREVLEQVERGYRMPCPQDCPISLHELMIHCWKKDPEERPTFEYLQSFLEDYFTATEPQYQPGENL
Sequence of MERTK (Q12866 whole entry, looked up): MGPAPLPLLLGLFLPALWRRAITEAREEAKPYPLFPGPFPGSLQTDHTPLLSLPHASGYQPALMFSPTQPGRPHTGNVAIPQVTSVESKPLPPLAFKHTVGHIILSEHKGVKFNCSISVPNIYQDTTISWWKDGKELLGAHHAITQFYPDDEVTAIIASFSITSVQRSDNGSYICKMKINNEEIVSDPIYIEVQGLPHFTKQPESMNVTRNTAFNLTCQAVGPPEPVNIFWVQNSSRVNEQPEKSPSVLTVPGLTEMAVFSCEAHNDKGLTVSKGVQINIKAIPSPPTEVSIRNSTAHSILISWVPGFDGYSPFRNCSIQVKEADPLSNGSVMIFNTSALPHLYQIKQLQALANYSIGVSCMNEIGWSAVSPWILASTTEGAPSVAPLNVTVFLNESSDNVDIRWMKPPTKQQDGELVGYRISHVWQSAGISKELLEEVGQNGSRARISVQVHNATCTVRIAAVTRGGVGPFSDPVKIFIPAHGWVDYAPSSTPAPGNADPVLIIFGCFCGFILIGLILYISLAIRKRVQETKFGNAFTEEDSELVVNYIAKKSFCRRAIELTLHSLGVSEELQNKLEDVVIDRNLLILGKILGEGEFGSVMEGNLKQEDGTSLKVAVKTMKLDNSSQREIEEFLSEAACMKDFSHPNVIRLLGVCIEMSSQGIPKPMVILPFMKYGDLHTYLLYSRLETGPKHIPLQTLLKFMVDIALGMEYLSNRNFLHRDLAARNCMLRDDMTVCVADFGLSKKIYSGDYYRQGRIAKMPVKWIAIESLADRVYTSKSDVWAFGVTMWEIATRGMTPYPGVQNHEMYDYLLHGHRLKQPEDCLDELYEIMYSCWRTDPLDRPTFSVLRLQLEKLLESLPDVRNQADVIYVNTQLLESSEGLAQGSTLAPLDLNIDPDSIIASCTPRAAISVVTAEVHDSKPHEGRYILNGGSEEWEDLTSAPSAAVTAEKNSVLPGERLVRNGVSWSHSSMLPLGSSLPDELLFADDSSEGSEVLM
Sequence of Hck (P08631 whole entry, looked up): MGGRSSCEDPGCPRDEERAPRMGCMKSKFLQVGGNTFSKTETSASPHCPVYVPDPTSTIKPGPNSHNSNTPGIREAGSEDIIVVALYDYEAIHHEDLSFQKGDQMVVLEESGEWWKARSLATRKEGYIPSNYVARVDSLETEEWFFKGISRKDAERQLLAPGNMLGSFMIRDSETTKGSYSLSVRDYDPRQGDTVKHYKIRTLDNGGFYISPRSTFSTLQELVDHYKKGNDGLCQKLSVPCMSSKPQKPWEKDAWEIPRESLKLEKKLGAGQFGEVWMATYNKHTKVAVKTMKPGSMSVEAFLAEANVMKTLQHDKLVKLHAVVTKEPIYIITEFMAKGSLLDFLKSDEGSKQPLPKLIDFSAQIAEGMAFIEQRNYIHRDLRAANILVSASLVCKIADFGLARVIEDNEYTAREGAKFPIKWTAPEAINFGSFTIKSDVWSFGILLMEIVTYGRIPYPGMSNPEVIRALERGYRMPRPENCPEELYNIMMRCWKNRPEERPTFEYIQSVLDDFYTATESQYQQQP
Sequence of Grb2 SH2 (P62993 whole entry, looked up): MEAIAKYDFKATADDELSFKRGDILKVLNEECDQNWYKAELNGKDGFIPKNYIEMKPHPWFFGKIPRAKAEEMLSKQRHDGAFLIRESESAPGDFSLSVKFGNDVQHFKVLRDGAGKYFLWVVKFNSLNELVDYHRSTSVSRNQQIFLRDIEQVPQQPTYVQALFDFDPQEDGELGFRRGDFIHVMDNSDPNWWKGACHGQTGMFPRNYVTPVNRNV
Sequence of EPHB1 (P54762 whole entry, looked up): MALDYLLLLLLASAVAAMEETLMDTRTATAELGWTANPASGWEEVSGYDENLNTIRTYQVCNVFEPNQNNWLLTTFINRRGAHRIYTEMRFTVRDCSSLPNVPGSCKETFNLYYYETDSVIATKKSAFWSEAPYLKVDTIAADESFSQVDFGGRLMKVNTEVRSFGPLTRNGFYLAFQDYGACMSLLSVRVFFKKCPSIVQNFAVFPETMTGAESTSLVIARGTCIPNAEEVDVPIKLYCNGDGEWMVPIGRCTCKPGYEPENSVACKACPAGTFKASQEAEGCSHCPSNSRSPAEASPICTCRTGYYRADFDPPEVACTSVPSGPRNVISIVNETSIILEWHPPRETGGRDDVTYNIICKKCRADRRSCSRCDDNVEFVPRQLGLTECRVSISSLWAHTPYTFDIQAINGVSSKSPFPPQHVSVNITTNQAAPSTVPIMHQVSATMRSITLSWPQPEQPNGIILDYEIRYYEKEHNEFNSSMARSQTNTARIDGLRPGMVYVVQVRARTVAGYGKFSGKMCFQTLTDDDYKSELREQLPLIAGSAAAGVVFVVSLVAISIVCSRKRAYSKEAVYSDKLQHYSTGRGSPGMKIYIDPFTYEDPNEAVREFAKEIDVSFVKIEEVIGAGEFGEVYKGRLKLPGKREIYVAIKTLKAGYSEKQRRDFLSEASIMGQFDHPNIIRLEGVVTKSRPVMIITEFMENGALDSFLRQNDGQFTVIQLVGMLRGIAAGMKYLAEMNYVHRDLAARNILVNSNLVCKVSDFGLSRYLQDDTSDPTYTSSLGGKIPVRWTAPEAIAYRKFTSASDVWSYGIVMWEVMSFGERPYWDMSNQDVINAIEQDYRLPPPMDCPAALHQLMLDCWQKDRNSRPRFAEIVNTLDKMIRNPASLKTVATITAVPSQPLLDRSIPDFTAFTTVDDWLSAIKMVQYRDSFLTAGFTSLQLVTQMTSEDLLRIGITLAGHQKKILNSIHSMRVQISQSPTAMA
Sequence of EPHB2 (P29323 whole entry, looked up): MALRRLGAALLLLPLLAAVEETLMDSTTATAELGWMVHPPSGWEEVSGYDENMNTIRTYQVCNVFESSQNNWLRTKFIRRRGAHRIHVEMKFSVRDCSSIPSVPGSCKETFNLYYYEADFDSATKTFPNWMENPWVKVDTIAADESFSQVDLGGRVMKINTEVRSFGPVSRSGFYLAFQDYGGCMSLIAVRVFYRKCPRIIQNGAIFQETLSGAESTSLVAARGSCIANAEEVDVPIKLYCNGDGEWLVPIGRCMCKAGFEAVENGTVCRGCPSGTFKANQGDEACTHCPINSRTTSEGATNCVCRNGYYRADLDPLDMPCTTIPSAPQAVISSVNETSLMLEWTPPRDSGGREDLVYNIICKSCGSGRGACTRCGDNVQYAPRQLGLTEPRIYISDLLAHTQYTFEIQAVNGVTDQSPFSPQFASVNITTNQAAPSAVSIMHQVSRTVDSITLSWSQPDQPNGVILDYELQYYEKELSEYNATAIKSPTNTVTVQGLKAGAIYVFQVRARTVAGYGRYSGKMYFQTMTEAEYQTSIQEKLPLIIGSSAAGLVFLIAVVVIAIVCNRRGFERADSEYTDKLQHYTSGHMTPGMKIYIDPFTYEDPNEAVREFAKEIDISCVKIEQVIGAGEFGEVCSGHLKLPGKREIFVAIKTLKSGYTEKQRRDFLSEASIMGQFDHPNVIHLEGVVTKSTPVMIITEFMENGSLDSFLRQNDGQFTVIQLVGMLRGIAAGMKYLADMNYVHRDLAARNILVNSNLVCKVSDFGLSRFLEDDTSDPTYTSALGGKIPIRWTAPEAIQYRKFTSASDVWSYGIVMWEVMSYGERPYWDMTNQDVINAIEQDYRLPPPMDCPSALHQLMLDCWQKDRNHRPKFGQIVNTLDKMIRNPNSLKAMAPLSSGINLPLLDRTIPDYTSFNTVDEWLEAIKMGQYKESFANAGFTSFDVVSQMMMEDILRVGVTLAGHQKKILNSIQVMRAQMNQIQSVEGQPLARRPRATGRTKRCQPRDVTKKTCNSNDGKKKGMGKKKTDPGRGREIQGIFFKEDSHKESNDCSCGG

| Sequence | phosphorylation enrichment (Fes) | phosphorylation enrichment (EPHB2) | phosphorylation enrichment (c-Src) | phosphorylation enrichment (Hck) | phosphorylation enrichment (AncSZ) | phosphorylation enrichment (FGFR1) | phosphorylation enrichment (EPHB1) | phosphorylation enrichment (MERTK) | phosphorylation enrichment (Jak2) | phosphorylation enrichment (FGFR3) | phosphorylation enrichment (Fyn) | phosphorylation enrichment (c-Abl (mouse)) | phosphorylation enrichment (Fer (mouse)) | SH2 binding enrichment (c-Src SH2) | SH2 binding enrichment (Grb2 SH2) | SH2 binding enrichment (SHP2-C SH2) |
| --- | --- | --- | --- | --- | --- | --- | --- | --- | --- | --- | --- | --- | --- | --- | --- | --- |
| KFRREYILSLE [GPC3_Y299_W296R_YF] | 0.772 | 0.586 | 0.5 | 0.474 | 0.786 | 0.518 | 0.551 | 0.455 | 0.61 | 0.466 | 0.518 | 0.601 | 0.442 | 0.594 | 0.86 | 0.708 |
| YVGGFYGGCNE [CTSC_Y352] | 1.14 | 0.553 | 0.786 | 0.984 | 1.17 | 0.639 | 0.54 | 0.682 | 1.06 | 0.962 | 0.864 | 0.869 | 0.786 | 1.23 | 0.77 | 0.651 |
| TRDVNYGWTIR [MT-CYB_Y75_I78T] | 0.969 | 0.648 | 0.492 | 0.478 | 1.39 | 0.46 | 0.544 | 0.495 | 0.834 | 0.636 | 0.441 | 0.534 | 0.588 | 0.515 | 1.29 | 1.02 |
| KASIMYPSNNC [CXCL11_Y52] | 0.786 | 0.472 | 0.394 | 0.459 | 0.673 | 0.484 | 0.528 | 0.368 | 0.604 | 0.49 | 0.446 | 0.518 | 0.359 | 0.589 | 0.952 | 0.504 |
| NFFEFYVDDPP [GCHFR_Y48_YF] | 1.28 | 0.621 | 0.575 | 0.499 | 1.44 | 0.741 | 0.704 | 0.531 | 1.12 | 0.925 | 0.569 | 0.836 | 0.557 | 0.533 | 0.978 | 0.594 |
| GAMGHYVLAER [HFE_Y342] | 0.659 | 0.403 | 0.437 | 0.44 | 0.643 | 0.38 | 0.387 | 0.452 | 0.511 | 0.446 | 0.41 | 0.505 | 0.453 | 2.46 | 1.18 | 0.91 |
| SIKNKYVTALY [KCNH2_Y611_D609N] | 0.592 | 0.498 | 0.461 | 0.47 | 0.559 | 0.409 | 0.349 | 0.528 | 0.605 | 0.598 | 0.359 | 0.454 | 0.518 | 0.381 | 0.909 | 0.932 |
| FLAVGYHKPFI [IDS_Y225_H229Y_YF] | 0.8 | 0.416 | 0.39 | 0.456 | 0.701 | 0.381 | 0.359 | 0.428 | 1.29 | 0.647 | 0.38 | 3.35 | 0.435 | 1.45 | 1.14 | 1.19 |
| FIGVTYKNKED [PDGFRA_Y993_E996K_YF] | 0.922 | 0.582 | 0.426 | 0.427 | 0.776 | 0.458 | 0.422 | 0.386 | 0.797 | 0.743 | 0.495 | 0.567 | 0.417 | 0.566 | 1.08 | 0.996 |
| MKALGYFAVVT [OPA1_Y498] | 1.53 | 0.773 | 0.436 | 0.825 | 1.25 | 0.579 | 0.852 | 0.403 | 1.62 | 0.996 | 0.63 | 0.892 | 0.655 | 0.488 | 0.769 | 0.752 |
| DDFNLYINVKL [MTHFD1_Y52_S49F] | 1.67 | 0.563 | 0.472 | 0.558 | 1.47 | 0.511 | 0.86 | 0.483 | 1.67 | 0.997 | 0.46 | 0.984 | 0.38 | 0.458 | 0.794 | 0.732 |
| LLVVVYKYRCY [PSEN1_Y154_L153V] | 3.48 | 1.22 | 0.662 | 1.08 | 2 | 1.08 | 2.05 | 0.474 | 0.994 | 1.22 | 0.703 | 1.65 | 1.25 | 0.829 | 2.16 | 2.37 |
| FSSLGYPPPEG [ZSWIM4_Y87_YF] | 0.906 | 0.481 | 0.421 | 0.472 | 0.752 | 0.437 | 0.418 | 0.401 | 0.807 | 0.704 | 0.443 | 0.593 | 0.396 | 0.535 | 0.957 | 0.829 |
| ADTETYLLEKS [MYH7_Y266_I263T] | 1.1 | 0.586 | 0.551 | 0.512 | 1.12 | 0.57 | 0.449 | 0.385 | 1.01 | 0.745 | 0.603 | 0.709 | 0.607 | 0.56 | 0.859 | 0.785 |
| EVEPRYVVLFD [ERCC4_Y577_YF] | 1.04 | 3.06 | 0.667 | 0.505 | 1.18 | 0.999 | 3.47 | 4.21 | 1.11 | 0.973 | 0.547 | 0.777 | 0.568 | 3.48 | 0.802 | 1.33 |
| APEVIYATPGA [ABLtide_2014] | 1.14 | 8.54 | 5.95 | 9.6 | 2.58 | 0.879 | 3.19 | 8.2 | 0.839 | 0.868 | 8.17 | 34.4 | 11.6 | 0.439 | 0.691 | 0.672 |
| FTFDPYSEEEP [IL2RB_Y387_D391E_YF] | 1.49 | 0.576 | 0.907 | 0.584 | 1.22 | 0.602 | 0.874 | 0.469 | 0.917 | 0.811 | 0.59 | 0.733 | 0.549 | 0.654 | 1.04 | 0.971 |

| Sequence | phosphorylation enrichment (Fes) | phosphorylation enrichment (EPHB2) | phosphorylation enrichment (c-Src) | phosphorylation enrichment (Hck) | phosphorylation enrichment (AncSZ) | phosphorylation enrichment (FGFR1) | phosphorylation enrichment (EPHB1) | phosphorylation enrichment (MERTK) | phosphorylation enrichment (Jak2) | phosphorylation enrichment (FGFR3) | phosphorylation enrichment (Fyn) | phosphorylation enrichment (c-Abl (mouse)) | phosphorylation enrichment (Fer (mouse)) | SH2 binding enrichment (c-Src SH2) | SH2 binding enrichment (Grb2 SH2) | SH2 binding enrichment (SHP2-C SH2) |
| --- | --- | --- | --- | --- | --- | --- | --- | --- | --- | --- | --- | --- | --- | --- | --- | --- |
| YETDYYQKGGK [INSR_Y1190_R1191Q] | 0.919 | 0.615 | 0.459 | 0.639 | 1.34 | 0.983 | 0.63 | 0.664 | 0.716 | 0.907 | 0.519 | 0.526 | 0.573 | 1.1 | 0.863 | 1.16 |
| AFRHGYFDEEM [PLEC_Y2971_R2969H_YF] | 1.12 | 0.59 | 0.412 | 0.456 | 1.13 | 0.554 | 0.498 | 0.478 | 1.3 | 0.676 | 0.487 | 0.806 | 0.593 | 0.606 | 0.832 | 0.614 |
| CTTIHYNNMCN [TP53_Y234_Y236N] | 0.943 | 0.479 | 0.416 | 0.532 | 0.734 | 0.423 | 0.455 | 0.367 | 0.551 | 0.538 | 0.486 | 0.528 | 0.404 | 1.89 | 2.45 | 0.818 |
| LGNIVYSSLCG [BCOR_Y90_P85L] | 2.15 | 1.39 | 5.82 | 6.67 | 2.1 | 1.05 | 1.47 | 2.66 | 2.02 | 1.54 | 4.98 | 2.48 | 1.74 | 0.551 | 0.778 | 1.44 |
| SSLMKYQQNVS [EGFEM1P_Y160_P157L] | 0.571 | 0.46 | 0.363 | 0.426 | 0.491 | 0.321 | 0.416 | 0.343 | 0.422 | 0.536 | 0.386 | 0.374 | 0.324 | 0.398 | 0.783 | 0.723 |
| PEAALYGRFTI [FYN_Y440] | 1.11 | 0.514 | 6.87 | 6.52 | 0.875 | 0.646 | 0.59 | 1.9 | 1.38 | 0.645 | 7.72 | 2.83 | 1.67 | 0.418 | 0.694 | 0.757 |
| GFVEDYRPPFY [ACVRL1_Y421_I417F] | 1.13 | 0.491 | 0.522 | 0.496 | 1.33 | 0.56 | 0.495 | 0.52 | 0.969 | 0.754 | 0.517 | 0.868 | 0.541 | 0.626 | 0.96 | 1.03 |
| LEHCQYVTEKV [ALDOB_Y204] | 2.85 | 1.55 | 0.822 | 0.839 | 1.83 | 1.6 | 1.74 | 1.04 | 1.68 | 1.91 | 1.59 | 1.18 | 1.91 | 0.744 | 0.756 | 0.821 |
| CTTIHYNYMCI [TP53_Y234_N239I] | 1 | 2.4 | 0.462 | 0.494 | 0.946 | 2.52 | 5.99 | 1.41 | 0.859 | 1.55 | 0.487 | 0.509 | 1.05 | 2.6 | 1.87 | 2.53 |
| ASMAKYYASGI [ACADSB_Y372_E376G] | 0.653 | 0.556 | 0.444 | 0.434 | 0.71 | 0.36 | 0.327 | 0.518 | 0.604 | 0.568 | 0.451 | 0.851 | 0.473 | 0.466 | 0.739 | 0.595 |
| ITVPAYFNDLQ [HSPA9_Y196_S200L] | 1.3 | 0.495 | 0.468 | 0.538 | 1.13 | 0.555 | 0.705 | 0.431 | 1.15 | 0.77 | 0.452 | 0.766 | 0.524 | 0.583 | 1.15 | 0.722 |
| IVRSRYEDLED [VHL_Y185_L184R] | 0.946 | 0.759 | 0.585 | 0.651 | 1.37 | 0.664 | 0.675 | 0.788 | 0.964 | 0.704 | 0.693 | 0.968 | 0.619 | 0.413 | 0.897 | 0.602 |
| LGSNGYKKLLK [SEPSECS_Y334] | 0.841 | 0.437 | 0.755 | 0.635 | 0.697 | 0.338 | 0.42 | 0.773 | 0.59 | 0.636 | 0.879 | 0.543 | 0.351 | 0.396 | 0.723 | 0.576 |
| GKMSQYLESMQ [CYB5R3_Y130] | 0.583 | 0.454 | 0.517 | 0.494 | 0.646 | 0.444 | 0.336 | 0.435 | 0.539 | 0.426 | 0.457 | 0.548 | 0.373 | 0.415 | 0.657 | 0.715 |
| IRQDHYESLKE [MTR_Y921] | 0.873 | 0.482 | 0.48 | 0.594 | 0.755 | 0.45 | 0.529 | 0.509 | 0.733 | 0.693 | 0.494 | 0.56 | 0.483 | 5.75 | 0.961 | 0.771 |
| QKKPRYEIRWK [PDGFRB_Y562] | 1.75 | 0.919 | 0.605 | 0.723 | 1.96 | 0.756 | 0.928 | 1.16 | 1.74 | 2.06 | 0.895 | 1.05 | 1.02 | 1.64 | 2.77 | 3 |
